Patent US20220306744A1 (CRESCENDO BIOLOGICS, published 2022)

Columns and labels:
[1] = biological target: T1, human PD-1 expressed on cells (CHO TREX human PD1 cell line, full-length human PD-1 sequence) (human, UniProt Q15116 21-288); assay: flow cytometry, PHA-stimulated human CD4+ T cells, Donor 3
T1 construct: Also used for human PD-1 on Jurkat reporter cells, on PathHunter cells and on PHA-stimulated human CD4+ T cells; also called CHO human PD1 cells; CHO human PD-1 cells
Experimental: (§1) Binding of monovalent single domain antibodies and multivalent binding agents to T cells was measured using flow cytometry. Peripheral blood mononuclear cells (PBMCs) were isolated from human blood by density gradient centrifugation then CD4+ T cells purified using a negative selection isolation kit according to the manufacturer's protocol (Miltenyi Biotech cat no 130-096-533). T-cells were stimulated with 2.5 μg/ml PHA for 3 days in RPMI media supplemented with 10% FBS, 2 mM Glutamine, 1× Pen/Strep. Cells were transferred into 96 well plates (75000 per well), blocked for 10 mins with PBS/1% BSA, then incubated with serially diluted VH in staining buffer (PBS/1% BSA) for 1 hour at 4° C. Cells were washed with staining buffer by centrifugation then incubated with 10 μg/ml biotinylated Anti His antibody for 40 mins at 4° C. Cells were washed again then stained with Streptavidin Alexa Fluor-488 (10 μg/ml) and 1:5000 diluted Live Dead near IR stain (Molecular Probes cat no. L10119) for 30 mins at 4° C. After further washing cells were fixed and fluorescence measured by flow cytometry.

[2] = biological target: T1, human PD-1 expressed on cells (CHO TREX …); assay: epitope competition assay on CHO human PD1 cells (labelled VH not specified) after 1 day in human serum
Experimental: (§2) Serum stability of VH and multivalent VH constructs was assessed by measurement of their activity following incubation for 0, 1, 4 or 7 days both in mouse (Sigma M5905) and human serum. […] Minimal loss of activity was observed following incubation with serum.

[3] = biological target: T1, human PD-1 expressed on cells (CHO TREX …); assay: FMAT: inhibition of PDL-2 (100 pM) binding to CHO human PD-1 cells
Experimental: Purified VH were serially diluted in FMAT assay buffer and tested for binding to CHO human PD-1 cells as described above and for inhibition of human PD-L1/PD-L2 binding to CHO human PD-1 cells. All reagents and serially diluted VH were prepared in FMAT assay buffer. VH, buffer (total binding controls) or excess competitor (non-specific binding control) were incubated with 400 pM human Fc tagged human PD-L1 or 100 pM PDL-2, 4 nM anti human Fc-Alexa Fluor-488 and 2000 per well CHO human PD-1 DRAQ5 stained cells in a 384 well black clear-bottomed assay plates. Plates were incubated for 2 hours at room temperature then fluorescence measured in the FL2 (502 nm-537 nm) and FL5 (677-800 nm) channels on the Mirrorball plate reader (TTP) following excitation at 488 nm and 640 nm. Data was expressed as a % of the total binding control (i.e. % control) after subtraction of the background signal determined from the non-specific binding control wells. The results are shown in FIG. 5 and in Tables 8 and 9 below.

[4] = biological target: T1, human PD-1 expressed on cells (CHO TREX …); assay: flow cytometry, PHA-stimulated human CD4+ T cells, Donor 1
Experimental: as §1

[5] = biological target: T1, human PD-1 expressed on cells (CHO TREX …); assay: FMAT epitope competition, CHO human PD1 cells; competitor Epitope 1 (1.1-Strep tagged protein)
Experimental: For the epitope competition assay reagents were prepared in FMAT assay buffer.
Multivalent molecules 1.92b-4GS-1.39a and 1.92b-4gs-1.62a were tested in the epitope competition assay as described above. 1.92b-4GS-1.39a and 1.92b-4gs-1.62 did cross compete with 1.1-Strap tagged and 2.1-Strap tagged proteins for binding to the cells.
Plates were incubated for a minimum of 1.5 hours at room temperature then fluorescence measured in the FL2 (502 nm-537 nm) and FL5 (677-800 nm) channels on the Mirrorball plate reader (TTP) following excitation at 488 nm and 640 nm. Data was expressed as a % of the total binding control (i.e. % control) after subtraction of the background signal determined from the non-specific binding control wells.

[6] = biological target: T1, human PD-1 expressed on cells (CHO TREX …); assay: flow cytometry, PHA-stimulated human CD4+ T cells, Donor 4
Experimental: as §1

[7] = biological target: T1, human PD-1 expressed on cells (CHO TREX …); assay: epitope competition assay on CHO human PD1 cells (labelled VH not specified) after 7 days in human serum
Experimental: as §2

[8] = biological target: T1, human PD-1 expressed on cells (CHO TREX …); assay: epitope competition assay on CHO human PD1 cells (labelled VH not specified) after 7 days in mouse serum
Experimental: as §2

[9] = biological target: T2, mouse PD-1 protein (R&D Systems cat no. 1021-PD) (mouse, UniProt Q02242 25-167); assay: HTRF binding assay, 2 nM mouse PD1
T2 construct: Bought protein
T2 sequence (looked up): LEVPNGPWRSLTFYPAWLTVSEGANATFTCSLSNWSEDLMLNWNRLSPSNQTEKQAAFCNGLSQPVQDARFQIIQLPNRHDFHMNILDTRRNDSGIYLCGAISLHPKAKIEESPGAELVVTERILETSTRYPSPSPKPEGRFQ
Experimental: Purified VH were tested for their ability to bind to human PD1 (R&D Systems cat no. 1086-PD), cynomolgus PD-1 (Acro Biosystems cat no. PD-1-C5254) and mouse PD1 (R&D Systems cat no. 1021-PD) in an HTRF Binding assay format. All reagents and serially diluted VH were prepared in assay buffer containing PBS, 0.1% BSA and 0.4M Potassium Fluoride. Samples or assay buffer (non-specific binding) were incubated with 2 nM human/cynomolgus or mouse PD1, 1 nM Anti human-Fc Cryptate PAb (Cisbio cat. no. 61HFCKLB) and 30 nM anti His-D2 (CisBio cat no 61HISDLA) in black 384-shallow well assay plates for a minimum of 3 hours at room temperature. Time-resolved fluorescent emission at 620 nm and 665 nm was measured following excitation at 337 nm on the BMG PHERAstar plate reader. The HTRF ratio were calculated ((665 nm emission/620 nm emission)*10000) and the data corrected for (non-specific binding) to give the specific binding signal.

T1 sequence (Q15116 21-288): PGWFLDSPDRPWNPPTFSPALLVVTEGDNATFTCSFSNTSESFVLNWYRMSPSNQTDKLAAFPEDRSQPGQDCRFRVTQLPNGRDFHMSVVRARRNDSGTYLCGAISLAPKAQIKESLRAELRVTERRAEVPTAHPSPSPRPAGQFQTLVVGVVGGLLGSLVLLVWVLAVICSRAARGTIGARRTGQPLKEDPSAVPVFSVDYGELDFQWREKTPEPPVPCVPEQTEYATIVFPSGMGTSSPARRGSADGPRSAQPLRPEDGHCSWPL

| Binder | EC50 [1] | IC50 [2] | IC50 [3] | EC50 [4] | EC50 [5] | EC50 [6] | IC50 [7] | IC50 [8] | binding result [9] |
| --- | --- | --- | --- | --- | --- | --- | --- | --- | --- |
| 1.92b-4GS-1.39a (other, Biparatopic VH-linker-VH; built from its parts here because it is not clear whether 1112 is the protein or the nucleic acid) EVQLVESGGGLVKPGGSLRLSCAASGFTFSDESMTWMRQAPGKGLEWVSYISSGGGVKFYADSVKGRFTISRDNAKNSLYLQMNSLRAEDTAVYYCAREAPLRLGESPHDAFDISGQGTMVTVSSGGGGSGGGGSGGGGSGGGGSEVQLVESGGGLVQPGRSLRLSCAASGFTFDDYALHWVRQAPGKDLEWVSGISWNGGSYGYADSVKGRFTISRDNAKNSLYLQMNSLRAEDTALYYCVREKGPGLTGSTADYYGLDAWGQGTMVTVSS | 0.6 nM | 0.9 nM | 1.9 nM | 0.5 nM | 1.1 nM | 0.5 nM | 1 nM | 1.8 nM | no binding |
| 1.92b-4GS-1.62a (other, Biparatopic VH-linker-VH; also called 1.92-4GS-1.62a; 1.92b-4gs-2.12a) EVQLVESGGGLVKPGGSLRLSCAASGFTFSDESMTWMRQAPGKGLEWVSYISSGGGVKFYADSVKGRFTISRDNAKNSLYLQMNSLRAEDTAVYYCAREAPLRLGESPHDAFDISGQGTMVTVSSGGGGSGGGGSGGGGSGGGGSEVQLVESGGGVVRPGGSLRLSCAASGFTFDDYAMSWVRQAPGKGLEWVSGITWNAGSTGYADSVKGRFTISRDNAKNSLYLQMNSLRAEDTALYYCVRDKYSYAWSYDDFDIWGQGTMVTVSS | 0.6 nM | 1.3 nM | 1.6 nM | 0.3 nM | 1 nM | 0.3 nM | 1.1 nM | 2 nM | no binding |
